Data as given in US20120172295A1 (INDIANA UNIVERSITY RESEARCH AND TECHNOLOGY, published 2012).
Read-outs that look alike come from different tables or passages of the source. Starred links: 1 amine or outer side, 2 acyl side, 3 side chain; linkers in the order of their positions; H or OH if unused. Positions of bridges follow the written chain, without caps; N, C: chain ends. Non-standard residues stand in square brackets, D forms with d. Groups on a side chain read outwards from the residue. No end group written: not given here. *: point of attachment. γGlu = O=C(O)[C@H](CCC(=O)[*:2])N[*:1]; Palmitoyl = CCCCCCCCCCCCCCCC(=O)*; Aib = CC(C)(N)C(=O)O

Experiments:
Experiment in all cases: cell-based or functional assay
[1] = biological target: T1, glucagon receptor (UniProt P47871 26-477, limits assumed)
T1 sequence (P47871 26-477 limits assumed): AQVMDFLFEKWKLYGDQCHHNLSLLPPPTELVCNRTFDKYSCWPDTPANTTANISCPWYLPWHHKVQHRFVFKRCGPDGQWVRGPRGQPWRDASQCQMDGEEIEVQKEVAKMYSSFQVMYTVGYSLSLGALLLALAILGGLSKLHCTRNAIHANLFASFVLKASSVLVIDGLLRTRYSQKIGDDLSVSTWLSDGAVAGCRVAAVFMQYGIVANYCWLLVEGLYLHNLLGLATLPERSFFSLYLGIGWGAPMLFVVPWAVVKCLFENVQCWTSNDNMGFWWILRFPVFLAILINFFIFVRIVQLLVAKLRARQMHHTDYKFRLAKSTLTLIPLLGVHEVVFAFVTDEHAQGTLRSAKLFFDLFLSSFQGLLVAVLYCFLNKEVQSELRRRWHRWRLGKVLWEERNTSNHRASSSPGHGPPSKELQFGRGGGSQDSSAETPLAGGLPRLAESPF

[2] = biological target: T2, GLP-1 receptor (UniProt P43220 24-463, limits assumed)
[3] = biological target: T3, GIP receptor (UniProt P48546 22-466)
T3 sequence (looked up): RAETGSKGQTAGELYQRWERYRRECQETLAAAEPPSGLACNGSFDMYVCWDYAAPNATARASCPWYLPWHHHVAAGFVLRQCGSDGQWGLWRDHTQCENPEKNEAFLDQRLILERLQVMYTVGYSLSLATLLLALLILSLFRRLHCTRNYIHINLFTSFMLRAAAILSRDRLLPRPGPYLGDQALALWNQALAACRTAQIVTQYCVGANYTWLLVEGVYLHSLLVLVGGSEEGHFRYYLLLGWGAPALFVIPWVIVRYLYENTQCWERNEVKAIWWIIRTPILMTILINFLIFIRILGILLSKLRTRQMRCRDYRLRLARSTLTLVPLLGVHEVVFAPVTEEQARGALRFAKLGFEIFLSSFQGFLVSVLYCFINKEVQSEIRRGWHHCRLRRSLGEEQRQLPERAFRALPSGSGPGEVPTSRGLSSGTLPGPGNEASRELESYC

[4] = biological target: T1, glucagon receptor; remark: listed apart in the source
[5] = biological target: T2, GLP-1 receptor; remark: listed apart in the source
[6] = biological target: T1, glucagon receptor; remark: listed apart in the source
[7] = biological target: T1, glucagon receptor; remark: listed apart in the source
[8] = biological target: T1, glucagon receptor; remark: listed apart in the source
[9] = biological target: T1, glucagon receptor; remark: listed apart in the source
[10] = biological target: T2, GLP-1 receptor; remark: listed apart in the source
[11] = biological target: T2, GLP-1 receptor; remark: listed apart in the source
[12] = biological target: T1, glucagon receptor; remark: listed apart in the source
[13] = biological target: T2, GLP-1 receptor; remark: listed apart in the source
[14] = biological target: T3, GIP receptor; remark: listed apart in the source
[15] = biological target: T2, GLP-1 receptor; remark: listed apart in the source
[16] = biological target: T3, GIP receptor; remark: listed apart in the source

B1: Peptide 901 (peptide)
peptide: H[Aib]QGTFTSDK([γGlu-γGlu-Palmitoyl])SKYLD[Aib]RRAQDFVQWLMNTGPSSGAPPPS-NH2
modifications: N-terminus assumed
SMILES: CCCCCCCCCCCCCCCC(=O)N[C@@H](CCC(=O)N[C@@H](CCC(=O)NCCCC[C@H](NC(=O)[C@H](CC(=O)O)NC(=O)[C@H](CO)NC(=O)[C@@H](NC(=O)[C@H](Cc1ccccc1)NC(=O)[C@@H](NC(=O)CNC(=O)[C@H](CCC(N)=O)NC(=O)C(C)(C)NC(=O)[C@@H](N)Cc1c[nH]cn1)[C@@H](C)O)[C@@H](C)O)C(=O)N[C@@H](CO)C(=O)N[C@@H](CCCCN)C(=O)N[C@@H](Cc1ccc(O)cc1)C(=O)N[C@@H](CC(C)C)C(=O)N[C@@H](CC(=O)O)C(=O)NC(C)(C)C(=O)N[C@@H](CCCNC(=N)N)C(=O)N[C@@H](CCCNC(=N)N)C(=O)N[C@@H](C)C(=O)N[C@@H](CCC(N)=O)C(=O)N[C@@H](CC(=O)O)C(=O)N[C@@H](Cc1ccccc1)C(=O)N[C@H](C(=O)N[C@@H](CCC(N)=O)C(=O)N[C@@H](Cc1c[nH]c2ccccc12)C(=O)N[C@@H](CC(C)C)C(=O)N[C@@H](CCSC)C(=O)N[C@@H](CC(N)=O)C(=O)N[C@H](C(=O)NCC(=O)N1CCC[C@H]1C(=O)N[C@@H](CO)C(=O)N[C@@H](CO)C(=O)NCC(=O)N[C@@H](C)C(=O)N1CCC[C@H]1C(=O)N1CCC[C@H]1C(=O)N1CCC[C@H]1C(=O)N[C@@H](CO)C(N)=O)[C@@H](C)O)C(C)C)C(=O)O)C(=O)O
[1]
  % Relative activity: 560%
[2]
  % Relative activity: 460%
[3]
  % Relative activity: 8.65%

## H[Aib]QGTFTSDK([Trp-Palmitoyl])SKYLD[Aib]RRA[Aib]DFVC(PEG 40 kDa)WLMNT-NH2 [Glucagon (1-29a) Aib2 Lys10-Trp-C16 Aib16 Aib20 Cys24-40 kD]
[4]
  EC50: 2.37 nM
[5]
  EC50: 0.6 nM

B2: Peptide 900 (peptide)
peptide: H[Aib]QGTFTSDYSKYLD[Aib]RRAQDFVQWLMNTGPSSGAPPPSK([γGlu-γGlu-Palmitoyl])-NH2
modifications: N-terminus assumed
SMILES: CCCCCCCCCCCCCCCC(=O)N[C@@H](CCC(=O)N[C@@H](CCC(=O)NCCCC[C@H](NC(=O)[C@H](CO)NC(=O)[C@@H]1CCCN1C(=O)[C@@H]1CCCN1C(=O)[C@@H]1CCCN1C(=O)[C@H](C)NC(=O)CNC(=O)[C@H](CO)NC(=O)[C@H](CO)NC(=O)[C@@H]1CCCN1C(=O)CNC(=O)[C@@H](NC(=O)[C@H](CC(N)=O)NC(=O)[C@H](CCSC)NC(=O)[C@H](CC(C)C)NC(=O)[C@H](Cc1c[nH]c2ccccc12)NC(=O)[C@H](CCC(N)=O)NC(=O)[C@@H](NC(=O)[C@H](Cc1ccccc1)NC(=O)[C@H](CC(=O)O)NC(=O)[C@H](CCC(N)=O)NC(=O)[C@H](C)NC(=O)[C@H](CCCNC(=N)N)NC(=O)[C@H](CCCNC(=N)N)NC(=O)C(C)(C)NC(=O)[C@H](CC(=O)O)NC(=O)[C@H](CC(C)C)NC(=O)[C@H](Cc1ccc(O)cc1)NC(=O)[C@H](CCCCN)NC(=O)[C@H](CO)NC(=O)[C@H](Cc1ccc(O)cc1)NC(=O)[C@H](CC(=O)O)NC(=O)[C@H](CO)NC(=O)[C@@H](NC(=O)[C@H](Cc1ccccc1)NC(=O)[C@@H](NC(=O)CNC(=O)[C@H](CCC(N)=O)NC(=O)C(C)(C)NC(=O)[C@@H](N)Cc1c[nH]cn1)[C@@H](C)O)[C@@H](C)O)C(C)C)[C@@H](C)O)C(N)=O)C(=O)O)C(=O)O
[1]
  % Relative activity: 560%
[2]
  % Relative activity: 383%
[3]
  % Relative activity: 2.89%

## HSQGTFTSDYSKYLDSRRAQDFVQWLMNTGPSSGAPPPS (C-terminal amide) [Glucagon-Cex]
[6]
  cAMP induction EC50: 0.25 nM

## Y[Aib]EGTFTSDYSIYLDKQAA[Aib]EFVNWLLAGGPSSGAPPPSK(Palmitoyl) [mt-261]
[7]
  % Relative activity: 13.4%
[8]
  % Relative activity: 31.6%

B3: E16K20 Gluc-NH2 Lac (peptide)
peptide: HSQGTFTSDYSKYLDERRAKDFVQWLMNT-NH2
modifications: lactam 16-20; N-terminus assumed
SMILES: CSCC[C@H](NC(=O)[C@H](CC(C)C)NC(=O)[C@H](Cc1c[nH]c2ccccc12)NC(=O)[C@H](CCC(N)=O)NC(=O)[C@@H](NC(=O)[C@H](Cc1ccccc1)NC(=O)[C@H](CC(=O)O)NC(=O)[C@@H]1CCCCNC(=O)CC[C@H](NC(=O)[C@H](CC(=O)O)NC(=O)[C@H](CC(C)C)NC(=O)[C@H](Cc2ccc(O)cc2)NC(=O)[C@H](CCCCN)NC(=O)[C@H](CO)NC(=O)[C@H](Cc2ccc(O)cc2)NC(=O)[C@H](CC(=O)O)NC(=O)[C@H](CO)NC(=O)[C@@H](NC(=O)[C@H](Cc2ccccc2)NC(=O)[C@@H](NC(=O)CNC(=O)[C@H](CCC(N)=O)NC(=O)[C@H](CO)NC(=O)[C@@H](N)Cc2c[nH]cn2)[C@@H](C)O)[C@@H](C)O)C(=O)N[C@@H](CCCNC(=N)N)C(=O)N[C@@H](CCCNC(=N)N)C(=O)N[C@@H](C)C(=O)N1)C(C)C)C(=O)N[C@@H](CC(N)=O)C(=O)N[C@H](C(N)=O)[C@@H](C)O
[9]
  Percent Potency Relative to Native Ligand: 181%
[10]
  Percent Potency Relative to Native Ligand: 63%

## HSQGTFTSDYSKYLEERRAQDFVQWLMNT-NH2 [E15, E16 Gluc-NH2]
[11]
  Percent Potency Relative to Native Ligand: 9.2%

B4: mt-348 (peptide)
peptide: H[Aib]QGTFTSDYSKYLD[Aib]QAAKEFICWLMNGGPSSGAPPPSK-NH2
modifications: N-terminus assumed
SMILES: CC[C@H](C)[C@H](NC(=O)[C@H](Cc1ccccc1)NC(=O)[C@H](CCC(=O)O)NC(=O)[C@H](CCCCN)NC(=O)[C@H](C)NC(=O)[C@H](C)NC(=O)[C@H](CCC(N)=O)NC(=O)C(C)(C)NC(=O)[C@H](CC(=O)O)NC(=O)[C@H](CC(C)C)NC(=O)[C@H](Cc1ccc(O)cc1)NC(=O)[C@H](CCCCN)NC(=O)[C@H](CO)NC(=O)[C@H](Cc1ccc(O)cc1)NC(=O)[C@H](CC(=O)O)NC(=O)[C@H](CO)NC(=O)[C@@H](NC(=O)[C@H](Cc1ccccc1)NC(=O)[C@@H](NC(=O)CNC(=O)[C@H](CCC(N)=O)NC(=O)C(C)(C)NC(=O)[C@@H](N)Cc1c[nH]cn1)[C@@H](C)O)[C@@H](C)O)C(=O)N[C@@H](CS)C(=O)N[C@@H](Cc1c[nH]c2ccccc12)C(=O)N[C@@H](CC(C)C)C(=O)N[C@@H](CCSC)C(=O)N[C@@H](CC(N)=O)C(=O)NCC(=O)NCC(=O)N1CCC[C@H]1C(=O)N[C@@H](CO)C(=O)N[C@@H](CO)C(=O)NCC(=O)N[C@@H](C)C(=O)N1CCC[C@H]1C(=O)N1CCC[C@H]1C(=O)N1CCC[C@H]1C(=O)N[C@@H](CO)C(=O)N[C@@H](CCCCN)C(N)=O
[12]
  % Relative activity: 8.16%
  EC50: 0.433 nM
[13]
  % Relative activity: 149%
  EC50: 0.0037 nM
[14]
  % Relative activity: 0.15%
  EC50: 1.76 nM
[7]
  % Relative activity: 8.2%
[15]
  % Relative activity: 149%
[16]
  % Relative activity: 0.2%

B5: Glucagon (1-29a) Aib2 Lys10-Trp-C16 Aib16 Aib20 Cys24 (peptide)
peptide: H[Aib]QGTFTSDK([Trp-Palmitoyl])SKYLD[Aib]RRA[Aib]DFVCWLMNT-NH2
modifications: N-terminus assumed
SMILES: CCCCCCCCCCCCCCCC(=O)N[C@@H](Cc1c[nH]c2ccccc12)C(=O)NCCCC[C@H](NC(=O)[C@H](CC(=O)O)NC(=O)[C@H](CO)NC(=O)[C@@H](NC(=O)[C@H](Cc1ccccc1)NC(=O)[C@@H](NC(=O)CNC(=O)[C@H](CCC(N)=O)NC(=O)C(C)(C)NC(=O)[C@@H](N)Cc1c[nH]cn1)[C@@H](C)O)[C@@H](C)O)C(=O)N[C@@H](CO)C(=O)N[C@@H](CCCCN)C(=O)N[C@@H](Cc1ccc(O)cc1)C(=O)N[C@@H](CC(C)C)C(=O)N[C@@H](CC(=O)O)C(=O)NC(C)(C)C(=O)N[C@@H](CCCNC(=N)N)C(=O)N[C@@H](CCCNC(=N)N)C(=O)N[C@@H](C)C(=O)NC(C)(C)C(=O)N[C@@H](CC(=O)O)C(=O)N[C@@H](Cc1ccccc1)C(=O)N[C@H](C(=O)N[C@@H](CS)C(=O)N[C@@H](Cc1c[nH]c2ccccc12)C(=O)N[C@@H](CC(C)C)C(=O)N[C@@H](CCSC)C(=O)N[C@@H](CC(N)=O)C(=O)N[C@H](C(N)=O)[C@@H](C)O)C(C)C
[4]
  EC50: 2.06 nM
[5]
  EC50: 1.15 nM
